T1: HLA-DR5w12 (DRB1*1201) (human)
T1 chain 1: not shown
T1 chain 2: not shown

T2: HLA-DR7 (DRB1*0701) (human)
T2 chain 1: not shown
T2 chain 2: not shown

T3: HLA-DR8w2 (DRB1*0802) (human)
T3 chain 1: not shown
T3 chain 2: not shown


target: HLA-A*0201 (Human); test: not given; conditions: not given

| Binder | binding affinity ratio (IC50 of standard peptide / IC50 of test peptide) |
| --- | --- |
| YLLMDCSGSI (modifications not checked) [SSP2 50 …] | 0.17 |
| LLMDCSGSI (modifications not checked) [… (Pf SSP2 51, 9-mer A02 supermotif peptide)] | 0.046 |
| VIVFLIFFDL (modifications not checked) [SSP2 11 …] | 0.0038 |
| VIGPFMKAV (modifications not checked) [SSP2 226 …] | 0.0004 |
| SAWENVKNV (modifications not checked) [SSP2 218 …] | 0.0019 |
| SVFFLALFFI (modifications not checked) [… (P. falciparum EXP-1, position 5, 10 amino acids)] | 0.0017 |
| GIAGGLALL (modifications not checked) [… (Pf SSP2 503, 9-mer)] | 0.0022 |
| IVFLIFFDL (modifications not checked) [… (Pf SSP2 12, 9-mer A02 supermotif peptide)] | 0.0024 |
| VLLGGVGLV (modifications not checked) [… (P. falciparum EXP-1, position 91, 9 amino acids)] | 0.029 |
| LLGGVGLVL (modifications not checked) [… (EXP position 92, 9 amino acids)] | 0.0038 |
| LIFFDLFLV (modifications not checked) [… (Pf SSP2 15, 9-mer A02 supermotif peptide)] | 0.089 |
| HLGNVKYLV (modifications not checked) [… (Pf SSP2 3, 9-mer)] | 0.0017 |
| GLALLACAGL (modifications not checked) [… (Pf SSP2 507, 10-mer)] | 0.017 |

target: HLA-DR1 (DRB1*0101) (human); test: not given; conditions: not given

| Binder | binding affinity ratio (IC50 of standard peptide / IC50 of test peptide) |
| --- | --- |
| VVILTDGIPDSIQDS (modifications not checked) | 0.0001 |

target: HLA-DR2w2β2 (DRB5*0101) (human); test: not given; conditions: not given

| Binder | binding affinity ratio (IC50 of standard peptide / IC50 of test peptide) |
| --- | --- |
| KYLVIVFLIFFDLFL (modifications not checked) | -0.002 |
| VVILTDGIPDSIQDS (modifications not checked) | -0.0006 |
| MKILSVFFLALFFII (modifications not checked) | -0.0021 |
| AVPLAMKLIQQLNLN (modifications not checked) | -0.0006 |

target: HLA-DR4w15 (DRB1*0405) (human); test: not given; conditions: not given

| Binder | binding affinity ratio (IC50 of standard peptide / IC50 of test peptide) |
| --- | --- |
| KYLVIVFLIFFDLFL (modifications not checked) | -0.003 |

target: HLA-DR5w11 (DRB1*1101) (human); test: not given; conditions: not given

| Binder | binding affinity ratio (IC50 of standard peptide / IC50 of test peptide) |
| --- | --- |
| KYLVIVFLIFFDLFL (modifications not checked) | -0.0009 |
| VVILTDGIPDSIQDS (modifications not checked) | -0.0004 |
| MKILSVFFLALFFII (modifications not checked) | -0.001 |
| AVPLAMKLIQQLNLN (modifications not checked) | 0.0002 |
| AGGIAGGLALLACAG (modifications not checked) | -0.0002 |

target: HLA-A*1101 (human); test: not given; conditions: not given

| Binder | binding affinity ratio (IC50 of standard peptide / IC50 of test peptide) |
| --- | --- |
| QCEEERCPPK (modifications not checked) [… (Pf SSP2 280)] | 0.0002 |
| QGINVAFNR (modifications not checked) [… (Pf SSP2 192)] | 0.078 |
| QSQDNNGNR (modifications not checked) [… (Pf SSP2 436)] | 0.0002 |
| NSEDRETRPH (modifications not checked) [… (Pf SSP2 448)] | 0.0002 |
| QDSLKESRK (modifications not checked) [… (Pf SSP2 169)] | 0.0002 |
| PDSIQDSLK (modifications not checked) [… (Pf SSP2 165)] | 0.0002 |
| PSPNPEEGK (modifications not checked) [… (Pf SSP2 328)] | 0.0002 |

same assay, conditions: scale: ratio

| Binder | binding affinity ratio (relative to standard peptide) |
| --- | --- |
| HDLISDMIK (modifications not checked) | 0.0002 |
| KGTGSGVSSK (modifications not checked) [Pf EXP peptide … (position 27)] | 0.0009 |
| HDLISDMIKK (modifications not checked) | 0.0002 |
| GVSSKKKNK (modifications not checked) | 0.0002 |
| GVSSKKKNKK (modifications not checked) | 0.0002 |
| IFNKESLAEK (modifications not checked) [Pf EXP peptide … (position 15)] | 0.0003 |

Target: T1, HLA-DR5w12 (DRB1*1201) (human)
Test: not given
Conditions: not given

| Binder | binding affinity ratio (IC50 of standard peptide / IC50 of test peptide) |
| --- | --- |
| CVEVEKTASCGVWDE (modifications not checked) [… (Pf SSP2 235)] | 0.0001 |

Target: T2, HLA-DR7 (DRB1*0701) (human)
Test: not given
Conditions: not given

| Binder | binding affinity ratio (IC50 of standard peptide / IC50 of test peptide) |
| --- | --- |
| LIFFDLFLVNGRDVQ (modifications not checked) [… (Pf SSP2 15)] | 0.047 |
| VKYLVIVFLIFFDLF (modifications not checked) [… (Pf SSP2 7)] | 0.001 |
| CVEVEKTASCGVWDE (modifications not checked) [… (Pf SSP2 235)] | 0.0095 |

Target: T3, HLA-DR8w2 (DRB1*0802) (human)
Test: not given
Conditions: not given

| Binder | binding affinity ratio (IC50 of standard peptide / IC50 of test peptide) |
| --- | --- |
| CVEVEKTASCGVWDE (modifications not checked) [… (Pf SSP2 235)] | 0.0005 |

target: HLA-A*1101 (purified HLA class I molecule) (human); test: competition with a 125I-labelled probe peptide for purified HLA-A*1101; conditions: not given

| Binder | binding affinity ratio (IC50 of standard peptide / IC50 of test peptide) |
| --- | --- |
| WSPCSVTCGK (modifications not checked) [… (Pf SSP2 250, 10-mer)] | 0.0002 |
| QVRKHLNDR (modifications not checked) [… (Pf SSP2 139, 9-mer)] | 0.0002 |
| RSRKREILH (modifications not checked) [… (Pf SSP2 262, 9-mer)] | 0.0002 |
| VGCHPSDGK (modifications not checked) [… (Pf SSP2 203, 9-mer)] | 0.0003 |
| SIRRHNWVNH (modifications not checked) [… (Pf SSP2 58, 10-mer)] | 0.0002 |
| QSQDNNGNRH (modifications not checked) [… (Pf SSP2 436, 10-mer)] | 0.0002 |
| YADSAWENVK (modifications not checked) [… (Pf SSP2 215, 10-mer)] | 0.0002 |
| SIQDSLKESR (modifications not checked) [… (Pf SSP2 167, 10-mer)] | 0.0009 |
| VVPGAATPY (modifications not checked) [… (Pf SSP2 521, 9-mer)] | 0.0002 |
| SLLSTNLPY (modifications not checked) [… (Pf SSP2 120, 9-mer)] | 0.0046 |
